Source: the supplement of paper PMC9170038

Tested on: K4 kissing-loop RNA reporter
Test: apparent KD of K4 kissing-loop reporter; higher = weaker reporter binding
Settings: Eterna round: R107
Protocol: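 RNA-MaP round R107: designed RNA switches with theophylline, tryptophan, arginine or FMN aptamers are transcribed on-chip within common flanks. They are titrated with a labelled K4 kissing-loop RNA reporter in RNA-MaP buffer (100 mM Tris pH 7.5, 80 mM KCl, 4 mM MgCl2), without ligand or with the indicated ligand. Median apparent KD per design.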

[1] = input ligand: theophylline 20 uM
[2] = input ligand: tryptophan 2.4 mM
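Note: bound reporter read as fluorescence of individual clusters on recovered sequencing chips by microscopy, with normalized cluster intensities fitted with a binding model.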

Row | Sequence | apparent KD of K4 kissing-loop reporter (input ligand: FMN 200 uM) | apparent KD of K4 kissing-loop reporter (input ligand: arginine 13.2 mM) | apparent KD of K4 kissing-loop reporter (input ligand: none) | apparent KD of K4 kissing-loop reporter [1] | apparent KD of K4 kissing-loop reporter [2]
1 | AAUGUACAGGGAAGGAGCGUAGUCCAGUGAUGUUGGAAUUAAAUUCCUGUGAUGUUGGUUAUACAGGUAGGUCGCCCUAAAGUGC [KL-XARG-B21] | 112 nM | 92.2 nM | 108 nM | 118 nM | 93.3 nM
2 | UAGCGGUGGAGGCCACCGCUAUUCUGAGAAGGAGCGCAGAUGACUGCAGGUAGGUCGCUUAGAGCUUGCAGUGAUGUUGCAAGUU [Araatlaqu] | 191 nM | 144 nM | 191 nM | 223 nM | 177 nM
3 | UUGCAAGAGUCGGCCGCCACUCCGGGCCCUAUAAAUGGGCGCAGUGAUGUUGCGGCUAGGCCUCUGAGGACCGGGACUUUGUAGC [Ateusraor] | 51 nM | 55.4 nM | 78.5 nM | 82.9 nM | 111 nM
4 | GGUAGCAUGGCGGCCGCCACUGUUCGUGUUGCUAGCAGAUUCCAGUGAUGUUGGAAGCCUAGGUACAGGACCGGGCCAUGCUACC | 105 nM | 115 nM | 131 nM | 102 nM | 103 nM
5 | AGAGUUAUAUGAGGAUAUGAGAUAGUUAAUGAGUGAGUUAUAGUGUAGUUUGGUUAGUGAUGUUAUUUAGAAGGCGUGAGUGAUG [reefmullin] | 133 nM | 76.5 nM | 115 nM | 100 nM | 83.1 nM
6 | GUAGGAUGAGGAGGAGGAUGAAUUACUGAAGGAGCGCAUAGAAAUGCAGGUAGGUCGCGGUAAAGAAGUAUAGUGAUGUUAUAUA [SSArgA.F] | 421 nM | 420 nM | 448 nM | 483 nM | 292 nM
7 | AGGUCCGAGCCCGGAAGGGCUCGGACCUGUUAGGAUAUGACGUUAUUCAGAAGGGAUGGGUGGAGUGAUGUUCCACCCGAGAGGG [#2 Same State - FMN A Attempt #17 (HarryS)] | 106 nM | 103 nM | 100 nM | 108 nM | 98.3 nM
8 | AGUCCACUCUAAAGAGUGGACCUAAGGGAUACCAGUGAUGUUGGUCACCCUUGGCAGCCCUCUGUCAUCGAUAAAGAUGGCAGGA | 128 nM | 114 nM | 113 nM | 137 nM | 119 nM
9 | GGAGUGAUGUUCCAUUUUUAAAUCUCCGAUACCAGUAUGGAAACAUACCCUUGGCAGCGGUAAACCGCAGAUUAGGAAACUAGUC [Theophylline A K4 1] | 496 nM | 682 nM | 615 nM | 501 nM | 561 nM
10 | GAAUGAAAUAUCUGGCCCUAUCAGAAUUGGAAGGAUAUGACGGUCAUCAGAAGGUCCAACUCGUAGUGAUGUUGCGGGUUUUAAA [theeternabot_exclusion_KL_FMN_A_21] | 91.2 nM | 46.3 nM | 41.4 nM | 42.8 nM | 36.2 nM
11 | AUCUGGUUGGGCGAUACCAGUUUGGCAUAGUGAUGUUAUGCAACGCUCAGUGCAAGGCCAAACCCUUGGCAGCGCACAUCCUUUC [theeternabot_exclusion_KL_Theo_B_3] | 128 nM | 99.1 nM | 105 nM | 117 nM | 105 nM
12 | GAGCCAGAAGUUGCUGCGGGUUUCAGAGAUACCAGCCGUAUUGUAGGCCCUUGGCAGCUCGAGUGAUGUUCGAGCCGCUUCUAGC [Inma] | 128 nM | 95.4 nM | 120 nM | 115 nM | 114 nM
13 | AGAGUUAAUUAGUCUUUUUUAACAUUAAGUCAGGAUAUCGUAUAUUCGAGAAGGGACACAUGCUAGUGAUGUUAGCUAUUUCUCA [JR_ExcFMNA_Sub018] | 50.2 nM | 90.5 nM | 56.5 nM | 86.7 nM | 47.2 nM
14 | CGCAAGCAGCCAGUGAUGUUGGCCGCCUUGCGAGGACCGGUACGGCCGCCACUCGAAGGCGGCUAGUAGUAGUCUGUCUAACGGA [KL-XTryp-A16] | 104 nM | 107 nM | 112 nM | 74 nM | 184 nM
15 | GUUACGCAUGGAAGGAGCGCAGGCUCAACAAAUAGCUCAGUGAUGUUGAGCAUAUUAAAACUGCAGGUAGGUCGCCAUGUGUAAC [Ex Arginine B K4 23] | 651 nM | 547 nM | 657 nM | 671 nM | 588 nM
16 | CGCCGCAAGGCGAGCGCUCCCACUCCGGAAGGAGCGCCCGUAAGGGCAGGUAGGUCGCCGGAGUGAUGUUCCGGUGGAGGGCUCG [#2 Exclusion - Arginine A Attempt #14 (Inspired by Omei)] | 226 nM | 224 nM | 469 nM | 33 nM | 184 nM
17 | GACAUCUAUCGCCGAUAGUGUUUAUCUUGGGAGGAUAUGUCAGCGGACAGAAGGCCCAGUGAUGUUGGGUAGAUGACCGUUGCUU [Edbiza] | 242 nM | 114 nM | 135 nM | 127 nM | 120 nM
18 | GCGUUCAUGGCAGGAUAUAGGUAAAGGAGUGAUGUUCCUUAUGUUGCAUUUACUUAAUCCAACUCCCUAGAAGGGCCAUGAACGC | 123 nM | 140 nM | 151 nM | 139 nM | 146 nM
19 | ACCGCAUUGGGAUGAUCCCAAUGCGCUGGUCGAGGACCGGUACGGCCGCCACUCGUCCAGUGAUGUUGGACUAGGGCAACUGAAG [Bileesma] | 519 nM | 270 nM | 261 nM | 303 nM | 109 nM
20 | UAAUCCUAGUGAUAAUAAUCAAGUGGUGGACGAGGACCGGUACGGCCGCCACUCGAAAAUGCAGUGAUGUUGUAAUCCGGAUAAU [Exclusion - Tryptophan A (Freestyle 4)] | 627 nM | 701 nM | 878 nM | 771 nM | 581 nM
21 | GCCGUAGAUUGAAGGAGCGCCUUCUUACCAAGAGUGAUGUUCUUUGGUACCAUGUUCAGCAGGCAGGUAGGUCGCAAUCUACGGC | 195 nM | 142 nM | 188 nM | 155 nM | 169 nM
